These results are taken from EP4545559A2 (INSTITUTO BUTANTAN, dated 2025).

Where two headings read alike, the source gives them in different places.

The target of assay [1] is T1, RBD Gamma (K417T/E484K/N501Y) (SARS-CoV-2, UniProt P0DTC2 319-541).
T1 construct: domain: RBD
The experiment in a line: SPR, antigen on CM5 sensor. For orientation: In SPR one partner is held on a chip, and binding of the other changes the refractive index at the surface.

Assay [2] has as its target T2, RBD Delta (L452R/T478K) (SARS-CoV-2, UniProt P0DTC2 319-541).
T2 construct: domain: RBD
The experiment in a line: SPR, antigen on CM5 sensor.

Assay [3] has as its target T3, RBD Omicron (G339D, S371L, S373P, S375F, K417N, N440K, G446S, S477N, T478K, E484A, Q493R, G496S, Q49 (SARS-CoV-2, UniProt P0DTC2 319-541)).
T3 construct: range 319-541
The experiment in a line: SPR, antigen on CM5 sensor.

For assay [4], the target named is T2, RBD Delta (L452R/T478K). Nature of the assay: SPR kinetics; * dissociation in 360sec.
In assay [5] the target is T3, RBD Omicron (G339D, S371L, S373P, …). Nature of the assay: SPR kinetics; * dissociation in 360sec.
Assay [6] concerns the target T1, RBD Gamma (K417T/E484K/N501Y). Nature of the assay: SPR kinetics; *** did not dissociate until 36000sec.
For assay [7] the target is unchanged. Nature of the assay: SPR, antigen on CM5 sensor. This is another data set of the same source.
In assay [8] the target is T2, RBD Delta (L452R/T478K). Nature of the assay: SPR, antigen on CM5 sensor. This is another data set of the same source.
The target of assay [9] is T3, RBD Omicron (G339D, S371L, S373P, …). Nature of the assay: SPR, antigen on CM5 sensor. The source holds these as a separate data set.
In assay [10] the target is T1, RBD Gamma (K417T/E484K/N501Y). Nature of the assay: SPR kinetics; *** did not dissociate until 36000sec. This is another data set of the same source.
The target in assay [11] is T2, RBD Delta (L452R/T478K). The description is as above.
The target of assay [12] is T3, RBD Omicron (G339D, S371L, S373P, …). Described as above.
Assay [13] has as its target T1, RBD Gamma (K417T/E484K/N501Y). Nature of the assay: SPR, antigen on CM5 sensor. The source holds these as a separate data set.
Assay [14] concerns the target T2, RBD Delta (L452R/T478K). Nature of the assay: SPR, antigen on CM5 sensor. The source holds these as a separate data set.
Assay [15] concerns the target T3, RBD Omicron (G339D, S371L, S373P, …). The experiment in a line: SPR, antigen on CM5 sensor. The source holds these as a separate data set.
For assay [16] the target is unchanged. Nature of the assay: SPR kinetics; * dissociation in 360sec. The source holds these as a separate data set.
Assay [17] deals with T1, RBD Gamma (K417T/E484K/N501Y). Nature of the assay: SPR kinetics; *** did not dissociate until 36000sec. The source holds these as a separate data set.
Assay [18] deals with T2, RBD Delta (L452R/T478K). Described as above. This is another data set of the same source.
The target of assay [19] is T1, RBD Gamma (K417T/E484K/N501Y). Nature of the assay: SPR, antigen on CM5 sensor. This is another data set of the same source.
For assay [20], the target named is T2, RBD Delta (L452R/T478K). Nature of the assay: SPR, antigen on CM5 sensor. The source holds these as a separate data set.
In assay [21] the target is T3, RBD Omicron (G339D, S371L, S373P, …). The experiment in a line: SPR, antigen on CM5 sensor. The source holds these as a separate data set.
Assay [22] shares this target. Nature of the assay: SPR kinetics; * dissociation in 360sec. The source holds these as a separate data set.
For assay [23], the target named is T1, RBD Gamma (K417T/E484K/N501Y). The experiment in a line: SPR kinetics; *** did not dissociate until 36000sec. The source holds these as a separate data set.
The target in assay [24] is T2, RBD Delta (L452R/T478K). The description is as above. This is another data set of the same source.
In assay [25] the target is T1, RBD Gamma (K417T/E484K/N501Y). The experiment in a line: SPR, antigen on CM5 sensor. The source holds these as a separate data set.
For assay [26], the target named is T2, RBD Delta (L452R/T478K). The experiment in a line: SPR, antigen on CM5 sensor. This is another data set of the same source.
Assay [27] has as its target T3, RBD Omicron (G339D, S371L, S373P, …). The experiment in a line: SPR, antigen on CM5 sensor. The source holds these as a separate data set.
In assay [28] the target is T2, RBD Delta (L452R/T478K). The experiment in a line: SPR kinetics; ** dissociation in 36000sec.
Assay [29] deals with T1, RBD Gamma (K417T/E484K/N501Y). The experiment in a line: SPR kinetics; *** did not dissociate until 36000sec. The source holds these as a separate data set.
Assay [30] has as its target T3, RBD Omicron (G339D, S371L, S373P, …). The assay is described as above. The source holds these as a separate data set.
The target in assay [31] is T1, RBD Gamma (K417T/E484K/N501Y). Nature of the assay: SPR, antigen on CM5 sensor. This is another data set of the same source.
In assay [32] the target is T2, RBD Delta (L452R/T478K). The experiment in a line: SPR, antigen on CM5 sensor. The source holds these as a separate data set.
Assay [33] deals with T3, RBD Omicron (G339D, S371L, S373P, …). Nature of the assay: SPR, antigen on CM5 sensor. The source holds these as a separate data set.
The target is the same in assay [34]. Nature of the assay: SPR kinetics; ** dissociation in 36000sec.
Assay [35] deals with T1, RBD Gamma (K417T/E484K/N501Y). The experiment in a line: SPR kinetics; *** did not dissociate until 36000sec. This is another data set of the same source.
The target in assay [36] is T2, RBD Delta (L452R/T478K). Described as above. This is another data set of the same source.

B1: Monoclonal antibody S.11.1.D12 (antibody, V domains shown)
VH: EVQLLESGGGLVQPGGSLRLSCAASGFPFITYPMSWVRQAPGKGLEWVSDIGGIGGSTSYADSVKGRFTISRDNYQNTVYLQMHSLRAEDTAVYYCAKWKSRVDSSYKGGGWFDSWGPGTLVTVSS
VL: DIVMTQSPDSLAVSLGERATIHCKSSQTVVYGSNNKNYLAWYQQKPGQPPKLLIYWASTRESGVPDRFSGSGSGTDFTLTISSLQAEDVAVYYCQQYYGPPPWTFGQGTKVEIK
notes: also called mAb S.11.1.D12
The term Kd denotes the concentration at which binding is half-saturated. A higher Kd goes with weaker binding. On to B1, for which the RU stood at 44 RU in assay [1], 771 RU in [2] and 145 RU in assay [3]. In addition, the equilibrium dissociation constant (Kd) in assay [4] is 0.636 nM; in assay [5], 3.73 nM; in [6] it was approximately 11 nM.

B2: Monoclonal antibody S.10.1.C6 (antibody, V domains shown)
VH: QLQLQESGPGLVKPSETLSLTCTVSGGSISSSSYYWGWIRQPPGKGLEWIGSFYYSGGSYYNPSLKSRVTISVDTSKNQFSLKLSSVTAADTAVYYCARDEHGDYAVGYWGQGTLVTVSS
VL: QSVLTQPPSVSGAPGQRVTISCTGSSSNIGAGYDVHWYQQLPGTAPKLLIYGNNNRPSGVPDRFSGSKSGTSASLAITGLQAEDEADYYCQSYDSSLSALYVFGTGTKVTVL
notes: also called S.10.1.C6 mAb
For B2, the values for the RU in [7], in assay [8] and in assay [9] were 134 RU, 343 RU and 66 RU, respectively. In addition, the equilibrium dissociation constant (Kd) in assay [10] is approximately 0.235 nM; in [11], approximately 8.12 pM; in assay [12], approximately 0.804 nM.

B3: Monoclonal antibody S.11.1.C8 (antibody, V domains shown)
VH: QVQLVESGGGVVQPGRSLRLSCAASGFTFSTFSMHWVRQAPGKGLEWVAVILYDGTYKSYADSVKGRFTISRDNSGNTLFLQMNSLRAEDSAVYYCARDFGEMTTYFDFWGQGTLVTVSS
VL: DIQMTQPPSSLSASVGDRVTITCRASQSIGNNLNWYQQKPGKAPKLLIYVASSLQSGVPSRFSGSGSGTDFTLTISSLQPEDFATYFCQQSYSTPPWTFGQGTKVEIK
notes: also called mAb S.11.1.C8
B3: the RU in [13] came to 360 RU; in assay [14], 799 RU; in assay [15], 166 RU. In addition, the Kd in assay [16] was 0.615 nM; in assay [17], approximately 0.103 nM; in assay [18], approximately 0.0131 nM.

B4: Monoclonal antibody S.9.4.C7 (antibody, V domains shown)
VH: QVQLVESGGGVVQPGRSLRLSCAASGFTFRNYAMHWVRQAPGKGLEWVTVISYDGSDKYYADSVKGRFTISRDNSKNTLYLQMNSLRAEDTAVYYCAKDPVGGYCSGGRCYFHSHYFDYWGQGTLVTVSS
VL: NFMLTQPHSVSESPGKTVTISCTRSSGSIASYYVQWYQQRPGSSPTTVISEDNQRPSGVPDRFSGSIDSSSNSASLTISGLKTEDEADYYCQSYDSNNHVIFGGGTKLTVL
notes: also called mAb S.9.4.C7
With B4, the values for the RU in [19], in assay [20] and in assay [21] were 481 RU, 1150 RU and 160 RU, respectively. For the same molecule, the Kd was 1.31 nM in [22], approximately 0.205 nM in assay [23] and approximately 0.14 nM in assay [24].

B5: Monoclonal antibody S.9.2.D7 (antibody, V domains shown)
VH: EVQLLESGGGLIQTGGSLRLSCAASGFTFSSYAMSWVRQAPGKGLEWVSVISDSGGSTYYADSVKGRLTISRDNSKNTLYVQMNSLRAEDTAVYYCAKGKGGIAAAGPAFLFDYWGQGTLVTVSS
VL: DIQMTQSPSLLSASAGDRVTISCRMSQGISSYLAWYQQKPGKAPELLISSASTLQSGVPSRFSGSGSGTDFTLTISYLQSEDFATYYCQQYYSFPTTFGGGTKVEIK
notes: also called mAb S.9.2.D7
As for B5, the RU was determined as 50 RU in [25], 0 RU in assay [26] and 0 RU in assay [27]. Moreover, the dissociation constant (Kd) in assay [28] was 1.84 pM; in [29] it was approximately 0.237 pM; in assay [30] it was approximately 6.29 pM.

B6: Monoclonal antibody S.9.4.F4 (antibody, V domains shown)
VH: QVQLVESGGGVVQPGRSLRLSCAASGFTFSHYGMHWVRQAPGKGLEWVAVILYDGSNEYYADSVKGRFTISRDNSKNTLYLQMNSLRAEDTAVYYCAKGAGTYCSGGNCYVAYFDYWGQGTLVTVSS
VL: AIRMTQSPSSLSASVGDRVTITCQASQDISNYLNWYQQKPGKAPKLLIYDASNLETGVPSRFSGSGSGTDFTVTISSLQPEDFATYYCQQYDNLPLTFGGGTKVEIK
notes: also called mAb S.9.4.F4
On to B6, for which the RU in [31] turned out to be 160 RU; in [32], 373 RU; in assay [33] it was 74 RU. The Kd is 0.231 nM in [34], approximately 0.0187 nM in assay [35] and approximately 1.22 pM in [36].
